We go through 7 molecules from patent publication US8624002B2, “Prostaglandin E2 binding proteins and uses thereof” (AbbVie, Inc., priority 2008, dated 2014).

First the molecules themselves.
B1: 2B5-8.0: recombinant anti-PGE2 antibody from solved 2B5 sequence; VH SEQ ID NO 42, VL SEQ ID NO 43 (antibody, V domains shown)
VH: QVQLQQSGPELVRPGSSVKISCKASGYTFTKYWLGWVKQRPGHGLEWIGDIYPGYDYTHYNEKFKDKATLTVDTSSSTAYMQLSSLTSEDSAIYYCARSDGSSTYWGQGTLVTVSA
VL: DVLMTQTPLSLPVSLGDQASISCTSSQNIVHSNGNTYLEWYLQRPGQSPKLLIYKVSNRFSGVPDRFSGSGSGTVFTLKISRVEAEDLGVYYCFQVSHVPYTFGGGTKLEIKR
B2: Hu2B5.6: humanized 2B5-8.0; VH SEQ ID NO 70, VL SEQ ID NO 71 (antibody, V domains shown)
VH: EVQLVQSGAEVKKPGASVKVSCKASGYTFTKYWLGWVRQAPGQGLEWMGDIYPGYDYTHYNEKFKDRVTLTTDTSTSTAYMELSSLRSDDTAVYYCARSDGSSTYWGQGTLVTVSS
VL: B1 VL with L3V, S14T, L15P, D17E, Q18P, R44K, K50Q, V75D, L88V, L109V
B3: Hu2B5.8: humanized 2B5-8.0; VH SEQ ID NO 74, VL SEQ ID NO 75 (antibody, V domains shown)
VH: B2 VH
VL: B1 VL with S14T, L15P, D17E, Q18P, R44K, K50Q, V75D, L88V, L109V
B4: Hu2B5.2: humanized 2B5-8.0; VH SEQ ID NO 62, VL SEQ ID NO 63 (antibody, V domains shown)
VH: B2 VH with M48I, V68A, T72V
VL: B1 VL with L3V, S14T, L15P, D17E, Q18P, R44K, K50Q, V75D, L88V, L109V
B5: Hu2B5.3: humanized 2B5-8.0; VH SEQ ID NO 64, VL SEQ ID NO 65 (antibody, V domains shown)
VH: B2 VH with M48I, V68A, T72V, S84R
VL: B1 VL with S14T, L15P, D17E, Q18P, R44K, K50Q, V75D, L88V, L109V
B6: Hu2B5.1: humanized 2B5-8.0; VH SEQ ID NO 60, VL SEQ ID NO 61 (antibody, V domains shown)
VH: B2 VH with M48I, V68A, T72V, S84R
VL: B1 VL with L3V, S14T, L15P, D17E, Q18P, R44K, K50Q, V75D, L88V, L109V
B7: Hu2B5.4: humanized 2B5-8.0; VH SEQ ID NO 66, VL SEQ ID NO 67 (antibody, V domains shown)
VH: B2 VH with M48I, V68A, T72V
VL: B1 VL with S14T, L15P, D17E, Q18P, R44K, K50Q, V75D, L88V, L109V

Where a chain is given by its changes, count along the chain named.

The nature of one data set: ^3H-PGE2 ELISA (binding).
Conditions: not given
The protocol: Alternatively, prostaglandin binding was determined using a ^3H-PGE2 ELISA. Plates were coated at 50 μL/well with 5 μg/ml of goat anti-human IgG (Fc) (Thermo Scientific # 31170, Hudson, N.H.) or goat anti-mouse IgG (Fc) (Thermo Scientific # 31125, Hudson, N.H.) in PBS and incubated overnight at 4° C. The following day, plates were flicked and blotted dry. Plates were blocked with 200 μL/well of Superblock (Thermo Scientific # 37515, Hudson, N.H.) for 1 hour at room temperature. Plates were flicked and blotted dry. Monoclonal antibodies were diluted to 0.04 μg/ml in phosphate buffer solution with Tween 20 (PBST) (Abbott Bioresearch Center, Worcester, Mass.) and 10% Superblock and 50 μL of each antibody was added to each well of the pre-blocked ELISA plate at 2 ng/well and incubated for 1 hour at room temperature. Wells were washed 3 times with PBS+0.1% Tween-20. A serial 3-fold titration of ^3H-PGE2 (Perkin Elmer # NET-428, Waltham, Mass.) was prepared in PBST/10% Superblock. Fifty microliters of the ^3H-PGE2 solution was added to each well of the plate and incubated for 1 hour at room temperature. […] Plates were read using a TopCount reader (Perkin Elmer, Waltham, Mass.) with a 5 minute count delay. An EC50 number was determined using GraphPad Prism 5 (GraphPad Software, La Jolla, Calif.).
(In general: In an ELISA, binding on a coated surface is turned into a signal by an enzyme label.)
The molecule B1 displayed an EC50 of 0.253 nM.

The nature of the next data set: PGE2 competition ELISA, format not stated (biotin-PGE2 or ^3H-PGE2). It is filed as binding. The following applies: PGA2; humanized antibodies table. How it is done: Competition enzyme linked immunosorbent assays were performed to determine prostaglandin binding specificity for antibodies that bind prostaglandin E2, according to at least one of the two following methods.
ELISA plates (Costar 3369, Corning, N.Y.) were coated with 50 μl/well of anti-host Fc IgG (Sigma, St. Louis, Mo.) at 2 μg/ml in PBS (Invitrogen, Carlsbad, Calif.). Following an overnight incubation at 4° C., the plate was blocked with 200 μl Superblock (Pierce #37535, Rockford, Ill.). The IgG samples were diluted to 6 μg/ml in Assay Buffer (10% Superblock in PBS containing 0.05% Surfactamps (Pierce #37535, Rockford, Ill.). The PGE2-biotinamide was diluted to 3 nM in Assay Buffer. A titration curve in Assay Buffer was prepared for the prostaglandins PGA2 (Cayman Chemicals, Ann Arbor, Mich.), PGD2 (Cayman Chemicals, Ann Arbor, Mich.) and PGE2 (Cayman Chemicals, Ann Arbor, Mich.) starting at 300 nM by a 1:10 serial dilution. The reagents were added to tubes at a volume of 50 μl each/tube and preincubated for 1 hour at room temperature. Following the preincubation, the mix was transferred to the blocked plates and allowed to incubate for 1 hour at room temperature. Next, the plates were washed four times with Tween 20-Tris buffered solution (TTBS). Streptavidin polyhrp40 in Assay Buffer (Fitzgerald Industries, Concord, Mass.) at a 1:5000 dilution was then added to the wells and incubated for 45 minutes at room temperature. A final wash step was performed and the plates were developed using a single step TMB system (Sigma #T8665, Sigma, St. Louis, Mo.) and 100 μl/well 2N H2SO4. Plates were read at 450 nm on a Molecular Devices Spectramax plate reader (Sunnyvale, Calif.). […] IC50 number was determined using GraphPad Prism 5 (GraphPad Software, La Jolla, Calif.). The cross reactivity index was then calculated by IC50 of PGE2/IC50 of other prostaglandin(s).
Alternatively, prostaglandin selectivity was determined using a ^3H-PGE2 competition ELISA. Plates were coated with 50 μL/well of 5 μg/ml of goat anti-human IgG (Fc) (Thermo Scientific # 31170, Hudson, N.H.) or goat anti-mouse IgG (Fc) (Thermo Scientific # 31125, Hudson, N.H.) in PBS and incubated overnight at 4° C. The following day plates were flicked and blotted dry. Plates were blocked with 200 μL/well of Superblock (Thermo Scientific # 37515, Hudson, N.H.), 1 hour at room temperature. Plates were flicked and blotted dry. Monoclonal antibodies were diluted to 0.04 μg/ml in PBST (Abbott Bioresearch Center, Worcester, Mass.)/10% Superblock and 50 μL of each was added to each well (2 ng/well) of the pre-blocked ELISA plate and incubated for 1 hour at room temperature. Wells were washed 3 times with PBS/0.1% Tween-20. ^3H-PGE2 (Perkin Elmer # NET-428, Waltham, Mass.) was diluted in PBST/10% Superblock to 6 nM (2× stock). Each prostaglandin (Cayman Chemicals, Ann Arbor, Mich.) was prepared in PBST+10% Superblock at various concentrations ranging from 2000 μM (2× stock) to 0.00004 μM (2×). Equal volumes of the ^3H-PGE2 solution and of each prostaglandin dilution were mixed. Fifty microliters of this mixture was then added to each well of the plate and incubated for 1 hour at room temperature. Wells were washed manually 6 times with PBST/10% Superblock and 50 μL of scintillation fluid (Perkin Elmer # 6013621, Waltham, Mass.) added to each well. Plates were read using a TopCount reader (Perkin Elmer, Waltham, Mass.) with a 5 minute count delay. IC50 number was determined using GraphPad Prism 5 (GraphPad Software, La Jolla, Calif.). The cross reactivity index was then calculated by IC50 of PGE2/IC50 of other prostaglandin(s)
Several antibodies, named 19C9, 4F10 and 15F10 specific for PGE2 were isolated. […] The specificity of these antibodies for PGE2 was further determined by a competition ELISA with various prostaglandins as described in Example 1.B (Table 2). […]
Consider B2, for which the “Cross Reactivity Index (%) PGA2” value was 0.15%.

On to B3, for which the “Cross Reactivity Index (%) PGA2” value was determined as 0.20%.

As for B4, the “Cross Reactivity Index (%) PGA2” value was 0.18%.

Turning to B5, the “Cross Reactivity Index (%) PGA2” value is recorded as 0.18%.

With B6, the “Cross Reactivity Index (%) PGA2” value worked out at 0.21%.

Turning to B7, the “Cross Reactivity Index (%) PGA2” value was 0.22%.

Staying with this data set, now noted: PGD2; humanized antibodies table.
On to B2, for which the “Cross Reactivity Index (%) PGD2” value is listed as below 0.01%.

As to B3, the “Cross Reactivity Index (%) PGD2” value was below 0.01%.

Regarding B4, the “Cross Reactivity Index (%) PGD2” value is below 0.01%.

On to B5, for which the “Cross Reactivity Index (%) PGD2” value is given as below 0.01%.

Take B6: the “Cross Reactivity Index (%) PGD2” value is below 0.01%.

Consider B7, for which the “Cross Reactivity Index (%) PGD2” value is listed as below 0.01%.

Still in this data set, the particulars now being: PGE1; humanized antibodies table.
In the case of B2, the “Cross Reactivity Index (%) PGE1” value is 11%.

With B3, the “Cross Reactivity Index (%) PGE1” value is 8.5%.

In the case of B4, the “Cross Reactivity Index (%) PGE1” value is on record as 14%.

Consider B5, for which the “Cross Reactivity Index (%) PGE1” value is listed as 14%.

Consider B6, for which the “Cross Reactivity Index (%) PGE1” value was found to be 16%.

On to B7, for which the “Cross Reactivity Index (%) PGE1” value is listed as 14%.

A further data set is described as follows: Capillary zone electrophoresis. The following applies: running buffer pH 5.5; compared with Hu2B5.2, Hu2B5.4, Hu2B5.6, Hu2B5.8. It is filed as physicochemical.
As to B5, the “migration in capillary zone electrophoresis” value is listed as “migrated more basic”.

Turning to B6, the “migration in capillary zone electrophoresis” value is “migrated more basic”.

The EC50 is the concentration at which the effect is half-maximal. Higher therefore signals a need for much substance.
